The values that follow come from paper PMC2034485.

A word on the stoichiometry N: it is the number of molecules, sites or subunits per partner or assembly. As a reminder, the Kd is the equilibrium constant for the complex coming apart.

Series [1] addresses human Rad18 (Rad18 1–495) (human) (UniProt Q9NS91). Briefly: SEC-MALS.
Another series deals with GST-SAP (Homo sapiens) (UniProt Q9NS91). Briefly: SPR.
Sequence of GST-SAP (Homo sapiens) (Q9NS91 whole entry): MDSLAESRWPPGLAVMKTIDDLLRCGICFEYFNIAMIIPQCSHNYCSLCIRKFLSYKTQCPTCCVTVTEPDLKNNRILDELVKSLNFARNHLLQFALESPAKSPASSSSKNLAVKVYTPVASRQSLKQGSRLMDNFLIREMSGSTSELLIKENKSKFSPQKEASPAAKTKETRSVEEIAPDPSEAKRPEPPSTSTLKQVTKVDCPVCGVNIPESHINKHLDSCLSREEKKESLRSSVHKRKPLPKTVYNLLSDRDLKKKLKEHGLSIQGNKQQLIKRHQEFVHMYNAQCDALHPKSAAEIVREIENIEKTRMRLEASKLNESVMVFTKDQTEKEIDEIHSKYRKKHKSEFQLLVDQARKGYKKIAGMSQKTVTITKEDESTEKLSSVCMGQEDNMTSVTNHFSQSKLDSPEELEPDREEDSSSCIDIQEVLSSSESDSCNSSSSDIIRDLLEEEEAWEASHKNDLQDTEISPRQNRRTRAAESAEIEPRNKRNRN

Sequence of human Rad18 (Rad18 1–495) (Q9NS91 whole entry): as above

Substance “human Rad18 (Rad18 1–495) (from UniProt Q9NS91 1-495) (natural protein)” displayed a stoichiometry N in series [1] of 2. As to “TTTTTTTTTTTTTTTTTTTTTTTTTTTTTTTTTTTTTTTT [40T]”, in the series with GST-SAP (Homo sapiens), the Kd came to 1.1 µM. Still for that read-out and setting: for 40-mer dsDNA the value was 5.6 µM.
